First the molecules themselves.
B1: SCNN1D (parent)
chain: FYRLYQDLETHRLPCTSRCPRPCR
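Also: lentivirally expressed fusions sorted by FACS into six bins by GFP to DsRed ratio, PSI derived from sequencing read proportions per bin multiplied by bin number.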

This data set covers variants of B1. Kind of data set: protein stability index of a GFP-peptide fusion (GPS, HEK-293T) (PSI 1-6); higher = more stable. To be noted: c terminus: a fixed tail appended.
Turning to FYRLYQDLETHRLPCTSRCSRPCR, the protein stability index is 1.83.

For FYRLYQDLETHRLPCTSRCCRPCR, the protein stability index amounted to 2.51. With FYRLYQDLETHRLPCTSRCARPCR, the protein stability index came to 1.98. As for FYRLYQDLETHRLPCTSRCKRPCR, the figure is 2.57; as for FYRLYQRLETHRLPCTSRCPRPCR, 2.89.

Turning to FYRLYQSLETHRLPCTSRCPRPCR, the protein stability index was 1.98. Take FYRLYQVLETHRLPCTSRCPRPCR: the protein stability index turned out to be 1.98. On to FYRLYQTLETHRLPCTSRCPRPCR, for which the protein stability index was 2.09. As for FYRLYQYLETHRLPCTSRCPRPCR, the figure is 1.66; as for FYRLYQQLETHRLPCTSRCPRPCR, 1.48; as for FYRLYQFLETHRLPCTSRCPRPCR, 2.22.

Take FYRLYWDLETHRLPCTSRCPRPCR: the protein stability index is 3.33. As for FYRLYFDLETHRLPCTSRCPRPCR, the figure is 1.79; as for FYRLYRDLETHRLPCTSRCPRPCR, 1.96; as for FYRLYCDLETHRLPCTSRCPRPCR, 1.68. As to FYRLYIDLETHRLPCTSRCPRPCR, the protein stability index is 2.31. As for FYRLYVDLETHRLPCTSRCPRPCR, the figure is 1.65. As for FYRLYDDLETHRLPCTSRCPRPCR, the figure is 2.52. On to FYRLYSDLETHRLPCTSRCPRPCR, for which the protein stability index turned out to be 2.23. Take FYRLYPDLETHRLPCTSRCPRPCR: the protein stability index is 1.38. The value for FYRLYHDLETHRLPCTSRCPRPCR was 1.96. As to FYRLYADLETHRLPCTSRCPRPCR, the protein stability index came out at 2.21.

On to FYRLYQDFETHRLPCTSRCPRPCR, for which the protein stability index worked out at 2.58. As for FYRLYQDYETHRLPCTSRCPRPCR, the protein stability index came to 1.53.

In the case of FYRLYQDHETHRLPCTSRCPRPCR, the protein stability index is 2.97.

Take FYRLYQDNETHRLPCTSRCPRPCR: the protein stability index was 3.07. The value for FYRLYQDEETHRLPCTSRCPRPCR was 2.73; that for FYRLYQDRETHRLPCTSRCPRPCR was 2.22. As to FYRLYQDMETHRLPCTSRCPRPCR, the protein stability index is 2.02.

As to FYRLYQDKETHRLPCTSRCPRPCR, the protein stability index worked out at 2.38. As to FYRLYQDAETHRLPCTSRCPRPCR, the protein stability index is 2.38. For the variant FYRLYQDSETHRLPCTSRCPRPCR, the protein stability index turned out to be 2.47. Turning to FYRLYQDLETHRLPCTSRCPRPCQ, the protein stability index came to 2.57.

FYRLYQDLETHRLPCTSRCPRPCW: the protein stability index worked out at 1.3. Consider FYRLYQDLETHRLPCTSRCPRPCF, for which the protein stability index was found to be 1.75. As for FYRLYQDLETHRLPCTSRCPRPCH, the figure is 1.69. The value for FYRLYQDLETHRLPCTSRCPRPCM was 2.8. As for FYRLYQDLETHRLPCTSRCPRPCL, the figure is 1.6. Consider FYRLYQDLETHRLPCTSRCPRPCE, for which the protein stability index amounted to 2.14. The value for FYRLYQDLETHRLPCTSRCPRVCR was 1.8; that for FYRLYQDLETHRLPCTSRCPRFCR was 1.8; that for FYRLYQDLETHRLPCTSRCPRMCR was 1.5. For FYRLYQDLETHRLPCTSRCPRQCR, the protein stability index was 2.5. As to FYRLYQDLETHRLPCTSRCPRTCR, the protein stability index is 2.25. The value for FYRLYQDLETHRLPCTSRCPRPAR was 2.23; that for FYRLYQDLETHRLPCTSRCPRPTR was 2.37.

For FYRLYQDLETHRLPCTSRCPRPGR, the protein stability index is 2.65. For FYRLYQDLETHRLPCTSRCPRPHR, the protein stability index came to 2.17.

Turning to FYRLYQDLETHRLPCTSRCPRPFR, the protein stability index came out at 1.71.

In the case of FYRLYQDLETHRLPCTSRCPRPYR, the protein stability index came to 2.33. As for FYRLYQDLETHRLPCTSRCPRPER, the figure is 2.43. The value for FYRLYQDLETHRLPCTSRCPRPQR was 2.42. As for FYRLYQDLETHRLPCTSRCPRPNR, the figure is 1.91; as for FYRLYQDLETHRLPCTSRWPRPCR, 3.18; as for FYRLYQDLETHRLPCTSRSPRPCR, 2.09. With FYRLYQDLETHRLPCTSRRPRPCR, the protein stability index was 2.21. On to FYRLYQDLETHRLPCTSREPRPCR, for which the protein stability index was found to be 2.66. Turning to FYRLYQDLETHRLPCTSRLPRPCR, the protein stability index stood at 2.68. As for FYRLYQDLETHRLPCTSRIPRPCR, the figure is 2.64; as for FYRLYQDLETHRLPCTSRNPRPCR, 3.89; as for FYRLYQDLETHRLPCTSRPPRPCR, 2.03.

Turning to FYRLYQDLETHRLPCTSRKPRPCR, the protein stability index is 1.96. The value for FQRLYQDLETHRLPCTSRCPRPCR was 1.98; that for FVRLYQDLETHRLPCTSRCPRPCR was 2.97. The value for FHRLYQDLETHRLPCTSRCPRPCR was 1.59; that for FERLYQDLETHRLPCTSRCPRPCR was 4.26. As for FGRLYQDLETHRLPCTSRCPRPCR, the protein stability index is 2.74. Regarding FLRLYQDLETHRLPCTSRCPRPCR, the protein stability index turned out to be 1.55. As for FDRLYQDLETHRLPCTSRCPRPCR, the figure is 3.56; as for FPRLYQDLETHRLPCTSRCPRPCR, 2.85. As for FYRLYQDLETHRLPCGSRCPRPCR, the figure is 1.93; as for FYRLYQDLETHRLPCKSRCPRPCR, 1.9. The value for FYRLYQDLETHRLPCCSRCPRPCR was 1.66. As to FYRLYQDLETHRLPCISRCPRPCR, the protein stability index was 1.62. The value for FYRLYQDLETHRLPCQSRCPRPCR was 1.98. The value for FYRLYQDLETHRLPCASRCPRPCR was 1.98; that for FYRLYQDLETHRLPCNSRCPRPCR was 2.21; that for FYRLYQDLETHRLPCDSRCPRPCR was 2.79. Consider FYRLYQDLETHRLPCMSRCPRPCR, for which the protein stability index worked out at 2.1. Turning to FYRLYQDLEYHRLPCTSRCPRPCR, the protein stability index came out at 1.6. Take FYRLYQDLEDHRLPCTSRCPRPCR: the protein stability index came to 2.82. As for FYRLYQDLEMHRLPCTSRCPRPCR, the protein stability index was 1.86.

Consider FYRLYQDLEIHRLPCTSRCPRPCR, for which the protein stability index was found to be 2.44. For FYRLYQDLEFHRLPCTSRCPRPCR, the protein stability index was 1.21. As for FYRLYQDLELHRLPCTSRCPRPCR, the figure is 2.29. On to FYRLYQDLEPHRLPCTSRCPRPCR, for which the protein stability index is 2.03. The value for FYRLYQDLYTHRLPCTSRCPRPCR was 1.5; that for FYRLYQDLWTHRLPCTSRCPRPCR was 1.08; that for FYRLYQDLTTHRLPCTSRCPRPCR was 1.65.

Regarding FYRLYQDLVTHRLPCTSRCPRPCR, the protein stability index amounted to 2.29.

For the variant FYRLYQDLHTHRLPCTSRCPRPCR, the protein stability index worked out at 2.25. The value for FYRLYQDLNTHRLPCTSRCPRPCR was 1.6; that for FYRLYQDLGTHRLPCTSRCPRPCR was 1.57; that for FYRLYQDLSTHRLPCTSRCPRPCR was 1.94.

The values above are taken from the supplement of paper PMC10567573.
